PMC4091835

Experiments:
[1] = target: IRSp53 BAR–SH3 double mutant P278D P281D (human); test: ITC
[2] = target: IRSp53 construct BAR–SH3 (human); test: ITC
[3] = target: BAR–SH3 FRET reporter (IRSp53 construct BAR–SH3 S452C, labelled with fluorescein maleimide and rhodamine maleimide) (human); test: other fluorescence titration
[4] = target: Eps8–IRSp53 complex (BAR–SH3 FRET reporter saturated with Eps8) (human) (UniProt Q12929); test: other fluorescence titration
[5] = target: Cdc42_(G12V)–IRSp53 complex (BAR–SH3 FRET reporter titrated first with GMP-PNP–Cdc42_(G12V)) (human) (UniProt P60953); test: other fluorescence titration

Chain of Human Eps8 (Q12929 whole entry): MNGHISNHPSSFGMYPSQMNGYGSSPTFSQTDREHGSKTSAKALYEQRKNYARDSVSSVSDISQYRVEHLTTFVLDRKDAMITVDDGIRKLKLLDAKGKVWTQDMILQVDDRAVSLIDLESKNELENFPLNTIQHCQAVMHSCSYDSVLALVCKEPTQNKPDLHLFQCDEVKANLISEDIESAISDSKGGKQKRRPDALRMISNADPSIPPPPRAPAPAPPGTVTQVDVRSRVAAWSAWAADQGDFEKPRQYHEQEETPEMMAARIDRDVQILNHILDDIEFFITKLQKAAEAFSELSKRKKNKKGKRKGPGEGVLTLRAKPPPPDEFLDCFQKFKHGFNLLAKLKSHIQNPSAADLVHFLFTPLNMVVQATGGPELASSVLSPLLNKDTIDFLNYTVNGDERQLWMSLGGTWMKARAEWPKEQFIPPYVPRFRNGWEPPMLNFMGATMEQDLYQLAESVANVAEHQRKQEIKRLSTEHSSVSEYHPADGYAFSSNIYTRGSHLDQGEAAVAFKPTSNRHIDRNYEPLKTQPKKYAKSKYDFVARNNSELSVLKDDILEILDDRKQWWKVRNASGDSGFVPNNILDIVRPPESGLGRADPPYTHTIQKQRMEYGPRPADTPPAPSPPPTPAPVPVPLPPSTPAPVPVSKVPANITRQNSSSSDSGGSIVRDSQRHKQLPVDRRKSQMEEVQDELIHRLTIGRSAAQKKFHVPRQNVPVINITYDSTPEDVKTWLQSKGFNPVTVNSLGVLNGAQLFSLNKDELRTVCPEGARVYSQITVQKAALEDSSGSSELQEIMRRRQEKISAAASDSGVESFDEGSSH

Kd [1]	Kd [2]	Kd [3]	Kd [4]	Kd [5]	Substance
10.7 µM	4.7 µM	2.4 µM	10.7 µM		Human Cdc42 residues 1–178, constitutively active mutant G12V (from UniProt P60953 1-178) (domain or fragment)
				1.1 µM	Human Eps8 (from UniProt Q12929 1-822) (natural protein)
